T1: FcγRIIa H (FcγRIIa type H, His at position 131), extracellular domain with C-terminal His tag (human, UniProt P12318 34-217)
T1 construct: extracellular domain; also called FcgRIIa H; 2aH
T1 sequence (looked up): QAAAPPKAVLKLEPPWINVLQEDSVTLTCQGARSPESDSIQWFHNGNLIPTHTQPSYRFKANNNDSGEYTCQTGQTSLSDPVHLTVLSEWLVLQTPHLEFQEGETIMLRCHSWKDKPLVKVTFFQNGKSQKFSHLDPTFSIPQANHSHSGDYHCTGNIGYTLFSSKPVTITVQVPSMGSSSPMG


Biological target: T1, FcγRIIa H (FcγRIIa type H, His at …)
Assay: SPR Biacore, relative binding, GpH7-B3/GpL16-k0 (HoCon Ab)=100

Row | Ho/Con_2aH | Binder
1 | 123 % of control | GpH7-B3 variant S324_06M/GpL16-k0 (antibody, human IgG1, kappa, both H chains mutated; also called Ho Ab) heavy: not shown light: DIVMTQSPLSLPVTPGEPASISCQASESLVHSNRNTYLHWYLQKPGQSPQLLIYKVSNRFSGVPDRFSGSGSGTDFTLKISRVEAEDVGVYYCSQNTHVPPTFGQGTKVEIERTVAAPSVFIFPPSDEQLKSGTASVVCLLNNFYPREAKVQWKVDNALQSGNSQESVTEQDSKDSTYSLSSTLTLSKADYEKHKVYACEVTHQGLSSPVTKSFNRGEC
2 | 105 % of control | GpH7-B3 variant S337_14T/GpL16-k0 (antibody, human IgG1, kappa, both H chains mutated; also called Ho Ab) heavy: not shown light: DIVMTQSPLSLPVTPGEPASISCQASESLVHSNRNTYLHWYLQKPGQSPQLLIYKVSNRFSGVPDRFSGSGSGTDFTLKISRVEAEDVGVYYCSQNTHVPPTFGQGTKVEIERTVAAPSVFIFPPSDEQLKSGTASVVCLLNNFYPREAKVQWKVDNALQSGNSQESVTEQDSKDSTYSLSSTLTLSKADYEKHKVYACEVTHQGLSSPVTKSFNRGEC
3 | 102 % of control | GpH7-B3 variant S337_16H/GpL16-k0 (antibody, human IgG1, kappa, both H chains mutated; also called Ho Ab) heavy: not shown light: DIVMTQSPLSLPVTPGEPASISCQASESLVHSNRNTYLHWYLQKPGQSPQLLIYKVSNRFSGVPDRFSGSGSGTDFTLKISRVEAEDVGVYYCSQNTHVPPTFGQGTKVEIERTVAAPSVFIFPPSDEQLKSGTASVVCLLNNFYPREAKVQWKVDNALQSGNSQESVTEQDSKDSTYSLSSTLTLSKADYEKHKVYACEVTHQGLSSPVTKSFNRGEC
4 | 102 % of control | GpH7-B3 variant T335_15Y/GpL16-k0 (antibody, human IgG1, kappa, both H chains mutated; also called Ho Ab) heavy: not shown light: DIVMTQSPLSLPVTPGEPASISCQASESLVHSNRNTYLHWYLQKPGQSPQLLIYKVSNRFSGVPDRFSGSGSGTDFTLKISRVEAEDVGVYYCSQNTHVPPTFGQGTKVEIERTVAAPSVFIFPPSDEQLKSGTASVVCLLNNFYPREAKVQWKVDNALQSGNSQESVTEQDSKDSTYSLSSTLTLSKADYEKHKVYACEVTHQGLSSPVTKSFNRGEC
5 | 108 % of control | GpH7-B3 variant S324_20W/GpL16-k0 (antibody, human IgG1, kappa, both H chains mutated; also called Ho Ab) heavy: not shown light: DIVMTQSPLSLPVTPGEPASISCQASESLVHSNRNTYLHWYLQKPGQSPQLLIYKVSNRFSGVPDRFSGSGSGTDFTLKISRVEAEDVGVYYCSQNTHVPPTFGQGTKVEIERTVAAPSVFIFPPSDEQLKSGTASVVCLLNNFYPREAKVQWKVDNALQSGNSQESVTEQDSKDSTYSLSSTLTLSKADYEKHKVYACEVTHQGLSSPVTKSFNRGEC
6 | 101 % of control | GpH7-B3 variant T335_13S/GpL16-k0 (antibody, human IgG1, kappa, both H chains mutated; also called Ho Ab) heavy: not shown light: DIVMTQSPLSLPVTPGEPASISCQASESLVHSNRNTYLHWYLQKPGQSPQLLIYKVSNRFSGVPDRFSGSGSGTDFTLKISRVEAEDVGVYYCSQNTHVPPTFGQGTKVEIERTVAAPSVFIFPPSDEQLKSGTASVVCLLNNFYPREAKVQWKVDNALQSGNSQESVTEQDSKDSTYSLSSTLTLSKADYEKHKVYACEVTHQGLSSPVTKSFNRGEC
7 | 100 % of control | GpH7-B3 variant T335_16H/GpL16-k0 (antibody, human IgG1, kappa, both H chains mutated; also called Ho Ab) heavy: not shown light: DIVMTQSPLSLPVTPGEPASISCQASESLVHSNRNTYLHWYLQKPGQSPQLLIYKVSNRFSGVPDRFSGSGSGTDFTLKISRVEAEDVGVYYCSQNTHVPPTFGQGTKVEIERTVAAPSVFIFPPSDEQLKSGTASVVCLLNNFYPREAKVQWKVDNALQSGNSQESVTEQDSKDSTYSLSSTLTLSKADYEKHKVYACEVTHQGLSSPVTKSFNRGEC
8 | 105 % of control | GpH7-B3 variant T335_07I/GpL16-k0 (antibody, human IgG1, kappa, both H chains mutated; also called Ho Ab) heavy: not shown light: DIVMTQSPLSLPVTPGEPASISCQASESLVHSNRNTYLHWYLQKPGQSPQLLIYKVSNRFSGVPDRFSGSGSGTDFTLKISRVEAEDVGVYYCSQNTHVPPTFGQGTKVEIERTVAAPSVFIFPPSDEQLKSGTASVVCLLNNFYPREAKVQWKVDNALQSGNSQESVTEQDSKDSTYSLSSTLTLSKADYEKHKVYACEVTHQGLSSPVTKSFNRGEC
9 | 101 % of control | GpH7-B3 variant T335_01G/GpL16-k0 (antibody, human IgG1, kappa, both H chains mutated; also called Ho Ab) heavy: not shown light: DIVMTQSPLSLPVTPGEPASISCQASESLVHSNRNTYLHWYLQKPGQSPQLLIYKVSNRFSGVPDRFSGSGSGTDFTLKISRVEAEDVGVYYCSQNTHVPPTFGQGTKVEIERTVAAPSVFIFPPSDEQLKSGTASVVCLLNNFYPREAKVQWKVDNALQSGNSQESVTEQDSKDSTYSLSSTLTLSKADYEKHKVYACEVTHQGLSSPVTKSFNRGEC
10 | 113 % of control | GpH7-B3 variant S324_09D/GpL16-k0 (antibody, human IgG1, kappa, both H chains mutated; also called Ho Ab) heavy: not shown light: DIVMTQSPLSLPVTPGEPASISCQASESLVHSNRNTYLHWYLQKPGQSPQLLIYKVSNRFSGVPDRFSGSGSGTDFTLKISRVEAEDVGVYYCSQNTHVPPTFGQGTKVEIERTVAAPSVFIFPPSDEQLKSGTASVVCLLNNFYPREAKVQWKVDNALQSGNSQESVTEQDSKDSTYSLSSTLTLSKADYEKHKVYACEVTHQGLSSPVTKSFNRGEC
11 | 107 % of control | GpH7-B3 variant S337_09D/GpL16-k0 (antibody, human IgG1, kappa, both H chains mutated; also called Ho Ab) heavy: not shown light: DIVMTQSPLSLPVTPGEPASISCQASESLVHSNRNTYLHWYLQKPGQSPQLLIYKVSNRFSGVPDRFSGSGSGTDFTLKISRVEAEDVGVYYCSQNTHVPPTFGQGTKVEIERTVAAPSVFIFPPSDEQLKSGTASVVCLLNNFYPREAKVQWKVDNALQSGNSQESVTEQDSKDSTYSLSSTLTLSKADYEKHKVYACEVTHQGLSSPVTKSFNRGEC
12 | 103 % of control | GpH7-B3 variant T335_19Q/GpL16-k0 (antibody, human IgG1, kappa, both H chains mutated; also called Ho Ab) heavy: not shown light: DIVMTQSPLSLPVTPGEPASISCQASESLVHSNRNTYLHWYLQKPGQSPQLLIYKVSNRFSGVPDRFSGSGSGTDFTLKISRVEAEDVGVYYCSQNTHVPPTFGQGTKVEIERTVAAPSVFIFPPSDEQLKSGTASVVCLLNNFYPREAKVQWKVDNALQSGNSQESVTEQDSKDSTYSLSSTLTLSKADYEKHKVYACEVTHQGLSSPVTKSFNRGEC
13 | 105 % of control | GpH7-B3 variant T335_10E/GpL16-k0 (antibody, human IgG1, kappa, both H chains mutated; also called Ho Ab) heavy: not shown light: DIVMTQSPLSLPVTPGEPASISCQASESLVHSNRNTYLHWYLQKPGQSPQLLIYKVSNRFSGVPDRFSGSGSGTDFTLKISRVEAEDVGVYYCSQNTHVPPTFGQGTKVEIERTVAAPSVFIFPPSDEQLKSGTASVVCLLNNFYPREAKVQWKVDNALQSGNSQESVTEQDSKDSTYSLSSTLTLSKADYEKHKVYACEVTHQGLSSPVTKSFNRGEC
14 | 104 % of control | GpH7-B3 variant S324_10E/GpL16-k0 (antibody, human IgG1, kappa, both H chains mutated; also called Ho Ab) heavy: not shown light: DIVMTQSPLSLPVTPGEPASISCQASESLVHSNRNTYLHWYLQKPGQSPQLLIYKVSNRFSGVPDRFSGSGSGTDFTLKISRVEAEDVGVYYCSQNTHVPPTFGQGTKVEIERTVAAPSVFIFPPSDEQLKSGTASVVCLLNNFYPREAKVQWKVDNALQSGNSQESVTEQDSKDSTYSLSSTLTLSKADYEKHKVYACEVTHQGLSSPVTKSFNRGEC
15 | 101 % of control | GpH7-B3 variant S337_10E/GpL16-k0 (antibody, human IgG1, kappa, both H chains mutated; also called Ho Ab) heavy: not shown light: DIVMTQSPLSLPVTPGEPASISCQASESLVHSNRNTYLHWYLQKPGQSPQLLIYKVSNRFSGVPDRFSGSGSGTDFTLKISRVEAEDVGVYYCSQNTHVPPTFGQGTKVEIERTVAAPSVFIFPPSDEQLKSGTASVVCLLNNFYPREAKVQWKVDNALQSGNSQESVTEQDSKDSTYSLSSTLTLSKADYEKHKVYACEVTHQGLSSPVTKSFNRGEC

Biological target: T1, FcγRIIa H (FcγRIIa type H, His at …)
Assay: SPR Biacore, relative binding, GpH7-A5/GpH7-B3/GpL16-k0 (HeCon Ab)=100
Procedure: Analysis of interaction between objective antibody and the FcγR was carried out using Biacore T100 (GE Healthcare). HBS-EP+ (GE Healthcare) was used as the running buffer, and the measurement temperature was set to 25° C. Chips produced by immobilizing the antigen peptide by the amine coupling method to a Series S Sencor Chip CM5 (GE Healthcare), or alternatively, chips produced by allowing preliminarily biotinylated antigen peptides to interact with and immobilize onto a Series S Sensor Chip SA (certified) (GE Healthcare) were used. Antibodies of interest were captured onto an antigen peptide-immobilized chip, and allowed to interact to each FcγR diluted with running buffer. To regenerate and repeatedly use the chip, the antibodies captured on the chip were washed off by reacting 10 mM glycine-HCl, pH 1.5.

Row | He/Con_2aH | Binder
16 | 111 % of control | GpH7-A5/GpH7-B3 variant I332_02A/GpL16-k0 (antibody, human IgG1, kappa, one H chain mutated; also called He Ab) heavy 1: not shown heavy 2: not shown light: DIVMTQSPLSLPVTPGEPASISCQASESLVHSNRNTYLHWYLQKPGQSPQLLIYKVSNRFSGVPDRFSGSGSGTDFTLKISRVEAEDVGVYYCSQNTHVPPTFGQGTKVEIERTVAAPSVFIFPPSDEQLKSGTASVVCLLNNFYPREAKVQWKVDNALQSGNSQESVTEQDSKDSTYSLSSTLTLSKADYEKHKVYACEVTHQGLSSPVTKSFNRGEC
17 | 108 % of control | GpH7-A5/GpH7-B3 variant A330_12R/GpL16-k0 (antibody, human IgG1, kappa, one H chain mutated; also called He Ab) heavy 1: not shown heavy 2: not shown light: DIVMTQSPLSLPVTPGEPASISCQASESLVHSNRNTYLHWYLQKPGQSPQLLIYKVSNRFSGVPDRFSGSGSGTDFTLKISRVEAEDVGVYYCSQNTHVPPTFGQGTKVEIERTVAAPSVFIFPPSDEQLKSGTASVVCLLNNFYPREAKVQWKVDNALQSGNSQESVTEQDSKDSTYSLSSTLTLSKADYEKHKVYACEVTHQGLSSPVTKSFNRGEC
18 | 119 % of control | GpH7-A5/GpH7-B3 variant G236_03V/GpL16-k0 (antibody, human IgG1, kappa, one H chain mutated; also called He Ab) heavy 1: not shown heavy 2: not shown light: DIVMTQSPLSLPVTPGEPASISCQASESLVHSNRNTYLHWYLQKPGQSPQLLIYKVSNRFSGVPDRFSGSGSGTDFTLKISRVEAEDVGVYYCSQNTHVPPTFGQGTKVEIERTVAAPSVFIFPPSDEQLKSGTASVVCLLNNFYPREAKVQWKVDNALQSGNSQESVTEQDSKDSTYSLSSTLTLSKADYEKHKVYACEVTHQGLSSPVTKSFNRGEC
19 | 111 % of control | GpH7-A5/GpH7-B3 variant G236_10E/GpL16-k0 (antibody, human IgG1, kappa, one H chain mutated; also called He Ab) heavy 1: not shown heavy 2: not shown light: DIVMTQSPLSLPVTPGEPASISCQASESLVHSNRNTYLHWYLQKPGQSPQLLIYKVSNRFSGVPDRFSGSGSGTDFTLKISRVEAEDVGVYYCSQNTHVPPTFGQGTKVEIERTVAAPSVFIFPPSDEQLKSGTASVVCLLNNFYPREAKVQWKVDNALQSGNSQESVTEQDSKDSTYSLSSTLTLSKADYEKHKVYACEVTHQGLSSPVTKSFNRGEC
20 | 115 % of control | GpH7-A5/GpH7-B3 variant G236_07I/GpL16-k0 (antibody, human IgG1, kappa, one H chain mutated; also called He Ab) heavy 1: not shown heavy 2: not shown light: DIVMTQSPLSLPVTPGEPASISCQASESLVHSNRNTYLHWYLQKPGQSPQLLIYKVSNRFSGVPDRFSGSGSGTDFTLKISRVEAEDVGVYYCSQNTHVPPTFGQGTKVEIERTVAAPSVFIFPPSDEQLKSGTASVVCLLNNFYPREAKVQWKVDNALQSGNSQESVTEQDSKDSTYSLSSTLTLSKADYEKHKVYACEVTHQGLSSPVTKSFNRGEC

— US20150344570A1 (published 2015)
